Data on 3 molecules can be found in article PMC6443961, “Von Willebrand Factor Mediates Pneumococcal Aggregation and Adhesion in Blood Flow” (Frontiers in Microbiology, 2019).

Where “and” joins values, the source holds several entries; their conditions need not be identical. Identical values can stand only once.

Test [1] addresses recombinant enolase of S. pneumoniae serotype 2 (ATCC 11733) (Streptococcus pneumoniae serotype 2 (ATCC 11733)) (UniProt Q97QS2). The test can be described thus: SPR; rEno immobilised by amine coupling on CM5 chip (BIAcore T200), VWF or A domains as analyte, PBS pH 7.4 with 0.05% Tween 20, 25°C, 10 μl/min, 1:1 Langmuir model.
Test [2] addresses recombinant enolase protein (rEno) of S. pneumoniae serotype 2 (ATCC 11733) (Streptococcus pneumoniae serotype 2 (ATCC 11733)) (UniProt Q04KG2). Nature of the test: SPR; rEno immobilised by amine coupling on CM5 chips (BIAcore T200); PBS pH 7.4 with 0.05% Tween 20, 25°C, 10 µl/min; analytes plasma VWF 0.625-10.0 µg/ml or VWF A1 domain 0.0612-1.0 µg/ml; 1:1 Langmuir model; values of the single independent kinetic runs.

Test [3] deals with T1, human plasma von Willebrand factor (human, UniProt P04275 764-2813).
T1 construct: von Willebrand factor, human, derived from plasma; called 'full length VWF' in the SPR methods, as against the single A domains; Glycoprotein from plasma that circulates as multimers; also called VWF; plasma VWF; source: bought: Merck Chemicals (human plasma VWF)
The test can be described thus: peptide or protein array; 141 overlapping 15mer peptides of enolase (offset three) on cellulose membrane, overlay with 2.0 μg/ml VWF, detected with anti-VWF antibody. The note with it: both partners purified.

Chain of recombinant enolase protein (rEno) of S. pneumoniae serotype 2 (ATCC 11733) (Streptococcus pneumoniae serotype 2 (ATCC 11733)) (Q04KG2 whole entry, the tested form may be a part): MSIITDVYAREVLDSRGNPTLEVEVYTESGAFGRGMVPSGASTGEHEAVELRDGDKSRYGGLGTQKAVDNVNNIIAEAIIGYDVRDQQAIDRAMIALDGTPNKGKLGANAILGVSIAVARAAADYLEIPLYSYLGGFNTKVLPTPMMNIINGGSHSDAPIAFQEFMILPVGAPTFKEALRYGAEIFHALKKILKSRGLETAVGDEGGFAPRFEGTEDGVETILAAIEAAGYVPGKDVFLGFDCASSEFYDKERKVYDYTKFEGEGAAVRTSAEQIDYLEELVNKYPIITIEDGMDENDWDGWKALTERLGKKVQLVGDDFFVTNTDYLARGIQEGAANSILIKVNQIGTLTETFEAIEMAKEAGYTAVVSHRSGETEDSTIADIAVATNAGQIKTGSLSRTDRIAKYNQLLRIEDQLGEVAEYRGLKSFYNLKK
Chain of recombinant enolase of S. pneumoniae serotype 2 (ATCC 11733) (Streptococcus pneumoniae serotype 2 (ATCC 11733)) (Q97QS2 whole entry, the tested form may be a part): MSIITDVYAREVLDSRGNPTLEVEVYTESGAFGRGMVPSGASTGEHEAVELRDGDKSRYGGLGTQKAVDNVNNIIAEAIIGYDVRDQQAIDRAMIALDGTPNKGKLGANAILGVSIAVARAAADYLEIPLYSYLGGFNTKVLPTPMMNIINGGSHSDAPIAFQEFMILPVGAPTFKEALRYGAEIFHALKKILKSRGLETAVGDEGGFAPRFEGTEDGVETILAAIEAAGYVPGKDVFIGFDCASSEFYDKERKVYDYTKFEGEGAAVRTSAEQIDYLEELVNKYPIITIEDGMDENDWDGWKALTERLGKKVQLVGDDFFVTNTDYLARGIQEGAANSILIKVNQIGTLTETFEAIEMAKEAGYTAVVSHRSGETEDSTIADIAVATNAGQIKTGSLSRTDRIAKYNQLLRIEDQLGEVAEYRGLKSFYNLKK

As for “recombinant VWF domain A1 (domain or fragment)”, in test [1], the Kd worked out at 0.208 nM. Consider “recombinant VWF domain A1 (from UniProt P04275 23-2813) (domain or fragment)”, for which, in test [2], the Kd is 2.18 nM and 1.79 nM and 0.585 nM; the koff is 0.00126 s⁻¹ and 0.00175 s⁻¹ and 0.0013 s⁻¹.

B1: enolase peptide 181YGAEIFHALKKILKS195 (peptide)
peptide: YGAEIFHALKKILKS
notes: residues 181-195 of the enolase of S. pneumoniae; one 15mer of the peptide spot array; Synthesised as a spot and held on the cellulose membrane; also called core peptide of region no; source: synthetic peptide, spot on an amino pegylated cellulose membrane
For the molecule B1, the binding result in test [3] was “binds”.
